{
  "source": "patent US20260224754A1",
  "about": "“ORAL FORMULATION TO ENSURE BIOAVAILABILITY OF PEPTIDE, PROTEIN, AND NUCLEIC ACID THERAPEUTICS” (THE TRUSTEES OF COLUMBIA UNIVERSITY IN THE CITY OF NEW YORK, priority 2023, published 2026)",
  "molecules": {"B1": {"name": "LCN2: bone-derived hormone, also known as oncogene 24p3 or neutrophil gelatinase-associated lipocalin (protein, UniProt P80188 21-198, looked up)", "Neutrophil …": "QDSTSDLIPAPPLSKVPLQQNFQDNQFQGKWYVVGLAGNAILREDKDPQKMYATIYELKEDKSYNVTSVLFRKKKCDYWIRTFVPGCQPGEFTLGNIKSYPGLTSYLVRVVSTNYNQHAMVFFKKVSQNREYFKITLYGRTKELTSELKENFIRFSKSLGLPENHIVFPVPIDQCIDG"}},
  "key": {"C2C12 cells": {"tested_on": "C2C12 cells", "test": "gene expression and PKA/cAMP in C2C12 cells treated with recombinant LCN2", "assay_type": "cell-based, mouse", "method": "(§1) Mean±SEM. *, P<0.05, Student's t test.\nFIG. 37 show relative expression levels (fold over vehicle) of AcylcoA, Mcad and Ucp2 in C2C12 cells treated with increasing concentrations of recombinant Lcn2 for 4 h. Mean±SEM. *, P<0.05, Student's t test.\nThe in vivo results were confirmed in vitro. […] FIG. 40 summarizes how LCN2 regulate lean body mass with an increase in myogenesis and energy expenditure."}, "muscles of WT male mice": {"tested_on": "muscles of WT male mice", "test": "muscle gene expression in WT mice treated with recombinant LCN2", "assay_type": "in vivo", "from_the_text": "as §1\nFIGS. 32A-32B show relative expression levels (fold over vehicle) of MyHCIIa and MyHCIIb in EDL of 12-week-old male Lcn2osb−/− or WT littermates (FIG. 32A) or 8-week-old WT male mice treated with the indicated doses of recombinant Lcn2 or vehicle (n=6/group) for 16 weeks (FIG. 32B). Mean±SEM. *, P<0.05, Student's t test.\nFIGS. 34A-34B show relative expression levels (fold over vehicle) of the indicated genes in tibialis anterior of 12-week-old male Lcn2osb−/− or WT littermates (FIG. 34A) or 8-week-old WT male mice treated with 150 ng/g/day recombinant Lcn2 (n=7) or vehicle (n=8) for 16 weeks (FIG. 34B). Mean±SEM. *, P<0.05, Student's t test.\nRegarding muscle function, LCN2 is required to maintain lean mass and endurance. […] Endurance measured as exercise distance of 6-month old LCN2−/− and WT littermates individually housed in cages equipped with voluntary running wheels and recorded for 14 days following a 7-day acclimation is shown in FIG. 28B. The increase in energy expenditure of overexpressed LCN2 can be explained in part from the increase in lean body mass, which is correlated to basal metabolic rate. […] Myogenic regulatory factors, namely myf5, mrf4, myoD and myoG. are transcription factors that regulate myogenesis. In the knockout mice, these myogenic factors either decreased or had little change though seems to trend to decrease.\nFurthermore, the effect was studied in the specific type of type two muscle fiber. Type IIb is the classical fast twitch, white meat, glycolytic fiber type, whereas type IIa is still considered fast twitch but with oxidative capacity. It is considered in between an in between muscle fiber type between type 1, which are the slow twitch, red meat, oxidative muscle fiber, and classic type IIB. […] Both type II fibers are fast twitch, primarily glycolytic muscle fibers, but the type A ones are characterized by more mitochondria and seem to be more oxidative. […]"}},
  "data": [
    {"molecule": "B1", "values": [
      {"measurement": "expression of genes associated with beta-oxidation", "setting": "C2C12 cells; 4 h", "value": "increase in the expression of genes associated with B-oxidation"},
      {"measurement": "expression of genes that promote mitochondrial biogenesis (NRF1, Pgc1a)", "setting": "C2C12 cells; 4 h", "value": "increases the expression of genes that promote mitochondrial biogenesis"},
      {"measurement": "expression of genes that promote myogenesis", "setting": "C2C12 cells; 4 h", "value": "increases the expression of genes that promote myogenesis"},
      {"measurement": "PKA/cAMP activity", "setting": "C2C12 cells; Western blot and ELISA", "value": "induces PKA/cAMP activity"},
      {"measurement": "myosin heavy chain type IIa versus type IIb", "setting": "muscles of WT male mice; EDL, WT male mice, 16 weeks", "value": "increases the amount of myosin heavy chain type IIa compared to type IIb"},
      {"measurement": "expression of myogenic regulatory factors (myf5, mrf4, myoD, myoG)", "setting": "muscles of WT male mice; male WT mice treated with LCN2", "value": "at least a twofold increase in all myogenic regulatory factors"},
      {"measurement": "expression of mitochondrial genes", "setting": "muscles of WT male mice; tibialis anterior, WT mice treated with LCN2", "value": "increase in these mitochondrial genes"}
    ]}
  ]
}
